This note sets out measurements from patent US20210139548A1 (published 2021).

The labels stand for the following.
B1: Compound 193 (peptide)
peptide: Isovaleryl-APEK([AEEA-AEEA-γGlu-C18 diacid])PEEDASEEEIQRYYVSLRHYYNWLTRQRY-NH2
SMILES: CC[C@H](C)[C@H](NC(=O)[C@H](CCC(=O)O)NC(=O)[C@H](CCC(=O)O)NC(=O)[C@H](CCC(=O)O)NC(=O)[C@H](CO)NC(=O)[C@H](C)NC(=O)[C@H](CC(=O)O)NC(=O)[C@H](CCC(=O)O)NC(=O)[C@H](CCC(=O)O)NC(=O)[C@@H]1CCCN1C(=O)[C@H](CCCCNC(=O)COCCOCCNC(=O)COCCOCCNC(=O)CC[C@H](NC(=O)CCCCCCCCCCCCCCCCC(=O)O)C(=O)O)NC(=O)[C@H](CCC(=O)O)NC(=O)[C@@H]1CCCN1C(=O)[C@H](C)NC(=O)CC(C)C)C(=O)N[C@@H](CCC(N)=O)C(=O)N[C@@H](CCCNC(=N)N)C(=O)N[C@@H](Cc1ccc(O)cc1)C(=O)N[C@@H](Cc1ccc(O)cc1)C(=O)N[C@H](C(=O)N[C@@H](CO)C(=O)N[C@@H](CC(C)C)C(=O)N[C@@H](CCCNC(=N)N)C(=O)N[C@@H](Cc1c[nH]cn1)C(=O)N[C@@H](Cc1ccc(O)cc1)C(=O)N[C@@H](Cc1ccc(O)cc1)C(=O)N[C@@H](CC(N)=O)C(=O)N[C@@H](Cc1c[nH]c2ccccc12)C(=O)N[C@@H](CC(C)C)C(=O)N[C@H](C(=O)N[C@@H](CCCNC(=N)N)C(=O)N[C@@H](CCC(N)=O)C(=O)N[C@@H](CCCNC(=N)N)C(=O)N[C@@H](Cc1ccc(O)cc1)C(N)=O)[C@@H](C)O)C(C)C
B2: Compound 195 (peptide)
peptide: Isovaleryl-APEK([AEEA-AEEA-γGlu-C18 diacid])PEEDASPEALQRYYVELRHYYNWLTRQRY-NH2
SMILES: CC(C)CC(=O)N[C@@H](C)C(=O)N1CCC[C@H]1C(=O)N[C@@H](CCC(=O)O)C(=O)N[C@@H](CCCCNC(=O)COCCOCCNC(=O)COCCOCCNC(=O)CC[C@H](NC(=O)CCCCCCCCCCCCCCCCC(=O)O)C(=O)O)C(=O)N1CCC[C@H]1C(=O)N[C@@H](CCC(=O)O)C(=O)N[C@@H](CCC(=O)O)C(=O)N[C@@H](CC(=O)O)C(=O)N[C@@H](C)C(=O)N[C@@H](CO)C(=O)N1CCC[C@H]1C(=O)N[C@@H](CCC(=O)O)C(=O)N[C@@H](C)C(=O)N[C@@H](CC(C)C)C(=O)N[C@@H](CCC(N)=O)C(=O)N[C@@H](CCCNC(=N)N)C(=O)N[C@@H](Cc1ccc(O)cc1)C(=O)N[C@@H](Cc1ccc(O)cc1)C(=O)N[C@H](C(=O)N[C@@H](CCC(=O)O)C(=O)N[C@@H](CC(C)C)C(=O)N[C@@H](CCCNC(=N)N)C(=O)N[C@@H](Cc1c[nH]cn1)C(=O)N[C@@H](Cc1ccc(O)cc1)C(=O)N[C@@H](Cc1ccc(O)cc1)C(=O)N[C@@H](CC(N)=O)C(=O)N[C@@H](Cc1c[nH]c2ccccc12)C(=O)N[C@@H](CC(C)C)C(=O)N[C@H](C(=O)N[C@@H](CCCNC(=N)N)C(=O)N[C@@H](CCC(N)=O)C(=O)N[C@@H](CCCNC(=N)N)C(=O)N[C@@H](Cc1ccc(O)cc1)C(N)=O)[C@@H](C)O)C(C)C
B3: Compound 197 (peptide)
peptide: Isovaleryl-APAK([AEEA-AEEA-γGlu-C18 diacid])PEADASPEELQRYYVELRHYYNWLTRQRY-NH2
SMILES: CC(C)CC(=O)N[C@@H](C)C(=O)N1CCC[C@H]1C(=O)N[C@@H](C)C(=O)N[C@@H](CCCCNC(=O)COCCOCCNC(=O)COCCOCCNC(=O)CC[C@H](NC(=O)CCCCCCCCCCCCCCCCC(=O)O)C(=O)O)C(=O)N1CCC[C@H]1C(=O)N[C@@H](CCC(=O)O)C(=O)N[C@@H](C)C(=O)N[C@@H](CC(=O)O)C(=O)N[C@@H](C)C(=O)N[C@@H](CO)C(=O)N1CCC[C@H]1C(=O)N[C@@H](CCC(=O)O)C(=O)N[C@@H](CCC(=O)O)C(=O)N[C@@H](CC(C)C)C(=O)N[C@@H](CCC(N)=O)C(=O)N[C@@H](CCCNC(=N)N)C(=O)N[C@@H](Cc1ccc(O)cc1)C(=O)N[C@@H](Cc1ccc(O)cc1)C(=O)N[C@H](C(=O)N[C@@H](CCC(=O)O)C(=O)N[C@@H](CC(C)C)C(=O)N[C@@H](CCCNC(=N)N)C(=O)N[C@@H](Cc1c[nH]cn1)C(=O)N[C@@H](Cc1ccc(O)cc1)C(=O)N[C@@H](Cc1ccc(O)cc1)C(=O)N[C@@H](CC(N)=O)C(=O)N[C@@H](Cc1c[nH]c2ccccc12)C(=O)N[C@@H](CC(C)C)C(=O)N[C@H](C(=O)N[C@@H](CCCNC(=N)N)C(=O)N[C@@H](CCC(N)=O)C(=O)N[C@@H](CCCNC(=N)N)C(=O)N[C@@H](Cc1ccc(O)cc1)C(N)=O)[C@@H](C)O)C(C)C
B4: Compound 199 (peptide)
peptide: Isovaleryl-APEK([AEEA-AEEA-γGlu-C18 diacid])PEEDAEPEETQRYYVSLRHYYNWLTRQRY-NH2
SMILES: CC(C)CC(=O)N[C@@H](C)C(=O)N1CCC[C@H]1C(=O)N[C@@H](CCC(=O)O)C(=O)N[C@@H](CCCCNC(=O)COCCOCCNC(=O)COCCOCCNC(=O)CC[C@H](NC(=O)CCCCCCCCCCCCCCCCC(=O)O)C(=O)O)C(=O)N1CCC[C@H]1C(=O)N[C@@H](CCC(=O)O)C(=O)N[C@@H](CCC(=O)O)C(=O)N[C@@H](CC(=O)O)C(=O)N[C@@H](C)C(=O)N[C@@H](CCC(=O)O)C(=O)N1CCC[C@H]1C(=O)N[C@@H](CCC(=O)O)C(=O)N[C@@H](CCC(=O)O)C(=O)N[C@H](C(=O)N[C@@H](CCC(N)=O)C(=O)N[C@@H](CCCNC(=N)N)C(=O)N[C@@H](Cc1ccc(O)cc1)C(=O)N[C@@H](Cc1ccc(O)cc1)C(=O)N[C@H](C(=O)N[C@@H](CO)C(=O)N[C@@H](CC(C)C)C(=O)N[C@@H](CCCNC(=N)N)C(=O)N[C@@H](Cc1c[nH]cn1)C(=O)N[C@@H](Cc1ccc(O)cc1)C(=O)N[C@@H](Cc1ccc(O)cc1)C(=O)N[C@@H](CC(N)=O)C(=O)N[C@@H](Cc1c[nH]c2ccccc12)C(=O)N[C@@H](CC(C)C)C(=O)N[C@H](C(=O)N[C@@H](CCCNC(=N)N)C(=O)N[C@@H](CCC(N)=O)C(=O)N[C@@H](CCCNC(=N)N)C(=O)N[C@@H](Cc1ccc(O)cc1)C(N)=O)[C@@H](C)O)C(C)C)[C@@H](C)O
B5: Compound 202 (peptide)
peptide: Isovaleryl-APEK([AEEA-AEEA-γGlu-C18 diacid])PEEDAAPEELQKYYVSLRHYYNWLTRQRY-NH2
SMILES: CC(C)CC(=O)N[C@@H](C)C(=O)N1CCC[C@H]1C(=O)N[C@@H](CCC(=O)O)C(=O)N[C@@H](CCCCNC(=O)COCCOCCNC(=O)COCCOCCNC(=O)CC[C@H](NC(=O)CCCCCCCCCCCCCCCCC(=O)O)C(=O)O)C(=O)N1CCC[C@H]1C(=O)N[C@@H](CCC(=O)O)C(=O)N[C@@H](CCC(=O)O)C(=O)N[C@@H](CC(=O)O)C(=O)N[C@@H](C)C(=O)N[C@@H](C)C(=O)N1CCC[C@H]1C(=O)N[C@@H](CCC(=O)O)C(=O)N[C@@H](CCC(=O)O)C(=O)N[C@@H](CC(C)C)C(=O)N[C@@H](CCC(N)=O)C(=O)N[C@@H](CCCCN)C(=O)N[C@@H](Cc1ccc(O)cc1)C(=O)N[C@@H](Cc1ccc(O)cc1)C(=O)N[C@H](C(=O)N[C@@H](CO)C(=O)N[C@@H](CC(C)C)C(=O)N[C@@H](CCCNC(=N)N)C(=O)N[C@@H](Cc1c[nH]cn1)C(=O)N[C@@H](Cc1ccc(O)cc1)C(=O)N[C@@H](Cc1ccc(O)cc1)C(=O)N[C@@H](CC(N)=O)C(=O)N[C@@H](Cc1c[nH]c2ccccc12)C(=O)N[C@@H](CC(C)C)C(=O)N[C@H](C(=O)N[C@@H](CCCNC(=N)N)C(=O)N[C@@H](CCC(N)=O)C(=O)N[C@@H](CCCNC(=N)N)C(=O)N[C@@H](Cc1ccc(O)cc1)C(N)=O)[C@@H](C)O)C(C)C
B6: Compound 196 (peptide)
peptide: Isovaleryl-APAK([AEEA-AEEA-γGlu-C18 diacid])PPEDAEPEELQRYYVSLRHYYNWLTRQRY-NH2
SMILES: CC(C)CC(=O)N[C@@H](C)C(=O)N1CCC[C@H]1C(=O)N[C@@H](C)C(=O)N[C@@H](CCCCNC(=O)COCCOCCNC(=O)COCCOCCNC(=O)CC[C@H](NC(=O)CCCCCCCCCCCCCCCCC(=O)O)C(=O)O)C(=O)N1CCC[C@H]1C(=O)N1CCC[C@H]1C(=O)N[C@@H](CCC(=O)O)C(=O)N[C@@H](CC(=O)O)C(=O)N[C@@H](C)C(=O)N[C@@H](CCC(=O)O)C(=O)N1CCC[C@H]1C(=O)N[C@@H](CCC(=O)O)C(=O)N[C@@H](CCC(=O)O)C(=O)N[C@@H](CC(C)C)C(=O)N[C@@H](CCC(N)=O)C(=O)N[C@@H](CCCNC(=N)N)C(=O)N[C@@H](Cc1ccc(O)cc1)C(=O)N[C@@H](Cc1ccc(O)cc1)C(=O)N[C@H](C(=O)N[C@@H](CO)C(=O)N[C@@H](CC(C)C)C(=O)N[C@@H](CCCNC(=N)N)C(=O)N[C@@H](Cc1c[nH]cn1)C(=O)N[C@@H](Cc1ccc(O)cc1)C(=O)N[C@@H](Cc1ccc(O)cc1)C(=O)N[C@@H](CC(N)=O)C(=O)N[C@@H](Cc1c[nH]c2ccccc12)C(=O)N[C@@H](CC(C)C)C(=O)N[C@H](C(=O)N[C@@H](CCCNC(=N)N)C(=O)N[C@@H](CCC(N)=O)C(=O)N[C@@H](CCCNC(=N)N)C(=O)N[C@@H](Cc1ccc(O)cc1)C(N)=O)[C@@H](C)O)C(C)C

*1 amine or outer side, *2 acyl side, *3 side chain or, on linkers, in order; H or OH if unused. Side-chain parts run from the residue outwards. The star is where a group is joined. C18 diacid = O=C(O)CCCCCCCCCCCCCCCCC(=O)*; γGlu = O=C(O)[C@H](CCC(=O)[*:2])N[*:1]; Isovaleryl = CC(C)CC(=O)*; AEEA = NCCOCCOCC(=O)O

The experiment deals with T1, human neuropeptide Y2 receptor (human, UniProt P49146 1-381).
T1 construct: whole, on cells; also called hNPY2 receptor; hNPY2-R
T1 sequence (looked up): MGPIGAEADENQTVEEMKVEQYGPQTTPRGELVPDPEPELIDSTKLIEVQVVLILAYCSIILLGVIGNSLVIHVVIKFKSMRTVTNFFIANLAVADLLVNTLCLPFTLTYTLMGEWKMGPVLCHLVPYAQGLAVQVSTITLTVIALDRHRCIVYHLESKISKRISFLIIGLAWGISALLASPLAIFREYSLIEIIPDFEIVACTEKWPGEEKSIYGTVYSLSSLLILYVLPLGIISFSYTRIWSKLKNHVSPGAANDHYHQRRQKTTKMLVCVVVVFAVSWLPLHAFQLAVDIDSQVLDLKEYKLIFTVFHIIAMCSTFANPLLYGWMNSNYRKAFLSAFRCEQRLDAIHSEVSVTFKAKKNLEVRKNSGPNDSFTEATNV
Put plainly: radioligand competition (125I-PYY(1-36)), hNPY2R membranes. An outline of the steps:
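Commercial human Y2 receptor membranes (0.5 μg protein/well) were incubated with peptide for 2 h at room temperature in 50 mM HEPES, 5 mM MgCl₂, 1 mM CaCl₂, pH 7.4, with 0.2% ovalbumin. Bound radioligand was separated on PEI-soaked GF/C filters and counted by scintillation, and IC₅₀ came from nonlinear sigmoidal regression.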
A general note: In a radioligand displacement assay an active substance lowers the binding of a labelled ligand.
In the case of B1, the Ki – broadly, the dissociation constant of the complex between target and ligand, obtained from inhibition or displacement – came out at 3810 pM.
Next, B2: 750 pM.
As to B3, the affinity, expressed as Ki, was 870 pM.
To B4 belongs 5690 pM; to B5, 600 pM.
Next, B6: 980 pM.
